The values that follow come from patent US20080287445A1, “Prokineticin 2 receptor antagonists” (priority 2005, published 2008).

The subject of this test is ileum mucosal tissues from PK1 receptor knock-out mice. The test is described as follows: PK1-evoked Isc in ileum mucosal tissues from PK1 receptor knock-out mice. The note with it: exogenous PK1 peptide.

B1: PK1: Recombinant human prokineticin-1 expressed in HEK 293 cells, FLAG epitope cleaved; preparation holds full-length and a four C-terminal residue truncated product (protein, UniProt P58294 20-105, looked up)
Prokineticin-1: AVITGACERDVQCGAGTCCAISLWLRGLRMCTPLGREGEECHPGSHKVPFFRKRKHHTCPCLPNLLCSRFPDGRYRCSMDLKNINF
modifications: mixture with C-terminally truncated product
Regarding B1, the “change in Isc compared to wild-type littermates” value is on record as “failed to elicit a significant change in Isc”.
